Reference: publication doi:10.1101/2025.07.08.663703, “Recruitment of Mre11 to recombination sites during meiosis” (bioRxiv, 2025)

Columns and labels:
[1] = system: Mer2; assay: In vitro colocalization of Mre11 with Mer2 condensates; format: binding, S. cerevisiae; conditions: 200 nM Alexa594Mer2 and eGFPMre11, assembled separately on DNA then mixed 1:1 for 30 min
Method: Proteins were diluted to a 10× stock of their appropriate working concentrations in their respective storage buffers. […] Unless specified otherwise, all reactions contained 400 nM ^Alexa488Mre11 or 100 nM ^eGFPMRX. A typical 20 μL binding reaction contained 2 μL protein of 10× stock of indicated concentration, 10 μL of 2× reaction buffer, and 150 ng of supercoiled pUC19 (5.7 nM). Typical reactions were assembled at 30°C for 30 mins with gentle mixing every 5 mins, unless mentioned otherwise. 5 μL was dropped onto a microscope slide and covered with a coverslip. All images were captured on a Zeiss Axio Observer with a 100×/1.4 NA oil immersion objective except for images provided in Figure 4G which were captured on Leica Stellaris DMI 8 confocal microscope with a 63x/1.2 NA water immersion objective. Images were analyzed with ImageJ using a custom-made script. In brief, 129.24 × 129.24-μm (2048 × 2048-pixel) images were thresholded to mean intensity of the background plus three times the standard deviation of the background. Masked foci were counted and the intensity inside the focus mask was integrated. Data points represent averages of at least 8–10 images per sample. Data were analyzed using Graphpad Prism 10.4.0.

[2] = system: plasmid DNA (pUC19); assay: In vitro condensation of Mre11 truncations with plasmid DNA; conditions: eGFP-tagged protein, 200 nM Mre11 for ΔIDR and ΔC49
Method: Proteins were diluted to a 10× stock of their appropriate working concentrations in their respective storage buffers. Reactions were performed in a buffer containing 25 mM HEPES-HCl (pH 7.5), 2 mM DTT, 1 mg/ml BSA, 5% glycerol, 5 mM MgCl2, 5% PEG-3350, and NaCl. Considering the salt contributed by the protein dilution buffer, final concentration of NaCl in a reaction was adjusted to 120 mM. Unless specified otherwise, all reactions contained 400 nM ^Alexa488Mre11 or 100 nM ^eGFPMRX. A typical 20 μL binding reaction contained 2 μL protein of 10× stock of indicated concentration, 10 μL of 2× reaction buffer, and 150 ng of supercoiled pUC19 (5.7 nM). Typical reactions were assembled at 30°C for 30 mins with gentle mixing every 5 mins, unless mentioned otherwise. 5 μL was dropped onto a microscope slide and covered with a coverslip. All images were captured on a Zeiss Axio Observer with a 100×/1.4 NA oil immersion objective except for images provided in Figure 4G which were captured on Leica Stellaris DMI 8 confocal microscope with a 63x/1.2 NA water immersion objective. Images were analyzed with ImageJ using a custom-made script. […] Masked foci were counted and the intensity inside the focus mask was integrated. […] Data were analyzed using Graphpad Prism 10.4.0.

[3] = system: pUC19 plasmid; assay: Gel shift assay of Mre11 and truncations; format: binding
Method: Proteins were diluted to their appropriate working concentrations in their respective storage buffers. […] Reactions were assembled at 30°C for 30 mins and resolved in a 1% agarose (SeaKem LE Agarose, Lonza) at 60 V for 120 mins at 4°C. Gels were stained with SYBR Gold Nucleic Acid Gel Stain (S11497, Invitrogen) for 40 mins and visualized with Amersham Typhoon biomolecular imager (Cytiva).

[4] = system: Mer2; assay: Co-expression NiNTA pulldown of MBP-Mre11-C49 (prey) with HisSUMO-Mer2 (bait); format: binding, S. cerevisiae; conditions: co-expression in E. coli, anti-MBP elution/input signal normalized to wild type, at least seven independent samples
Source text: The vector for expression of ^MBPMre11-C49 and ^HisSUMOMer2 (pCCB1040) was based on a pET-Duet1 vector with the sequence coding for ^MBPMre11-C49 cloned within the first position (SacI site) and the sequence coding for ^HisSUMOMer2 cloned at the second position (XhoI site). The EQEK mutations and LLK mutations were introduced by PCR amplification of pCCB1040 with primers cb1561 and cb1562, and pp84 and pp85, followed by phosphorylation and self-ligation to yield plasmids pry59 and pry61, respectively.
Wild-type and mutant MBP-tagged Mre11-C49 and HisSUMO-tagged Mer2 were co-expressed in 50 mL of E. coli BL21 cultures and purified by affinity chromatography on Ni-NTA resin following a procedure similar to that described above. Briefly, cells were lysed by sonication and centrifuged at maximum speed for 30 mins at 4°C on a table-top centrifuge. A small fraction of the supernatant was collected as ‘Input’ and the remainder was incubated with 120 μL Ni-NTA resin, pre-equilibrated with wash buffer (25 mM HEPES pH 7.5, 20 mM imidazole, 0.1 mM DTT, 0.1 mM PMSF, 10% glycerol), for 1 hour on a rotating wheel at 4°C. The resin was washed twice with 2 ml in batch and five times with 2 ml on column before eluting with 250 μL of 500 mM imidazole in wash buffer. […]

Molecule	colocalization with Mer2 [1]	condensate formation in vitro [2]	DNA binding ([3]; 1 nM pUC19, 25 mM HEPES pH 7.5, 5 mM EDTA, 100 mM NaCl, 30°C 30 min, two independent experiments for truncations)	species of reduced electrophoretic mobility ([3]; 1 nM pUC19, higher protein concentration)	interaction of Mre11-C49 and Mer2 in pulldown (anti-MBP immunoblot) [4]
Mre11 (protein, left off: Gal4 activation domain (from the vector pGAD-C1), end not stated, kept) MDYPDPDTIRILITTDNHVGYNENDPITGDDSWKTFHEVMMLAKNNNVDMVVQSGDLFHVNKPSKKSLYQVLKTLRLCCMGDKPCELELLSDPSQVFHYDEFTNVNYEDPNFNISIPVFGISGNHDDASGDSLLCPMDILHATGLINHFGKVIESDKIKVVPLLFQKGSTKLALYGLAAVRDERLFRTFKDGGVTFEVPTMREGEWFNLMCVHQNHTGHTNTAFLPEQFLPDFLDMVIWGHEHECIPNLVHNPIKNFDVLQPGSSVATSLCEAEAQPKYVFILDIKYGEAPKMTPIPLETIRTFKMKSISLQDVPHLRPHDKDATSKYLIEQVEEMIRDANEETKQKLADDGEGDMVAELPKPLIRLRVDYSAPSNTQSPIDYQVENPRRFSNRFVGRVANGNNVVQFYKKRSPVTRSKKSGINGTSISDRDVEKLFSESGGELEVQTLVNDLLNKMQLSLLPEVGLNEAVKKFVDKDEKTALKEFISHEISNEVGILSTNEEFLRTDDAEEMKALIKQVKRANSVRPTPPKENDETNFAFNGNGLDSFRSSNREVRTGSPDITQSHVDNESRITHISQAESSKPTSKPKRVRTATKKKIPAFSDSTVISDAENELGDNNDAQDDVDIDENDIIMVSTDEEDASYGLLNGRKTKTKTRPAASTKTASRRGKGRASRTPKTDILGSLLAKKRK	nearly absolute colocalization				
Mre11^IDR: eGFP-tagged Mre11-IDR (524-677) (protein, UniProt P32829 524-677, looked up, fragment, eGFP tag) NSVRPTPPKENDETNFAFNGNGLDSFRSSNREVRTGSPDITQSHVDNESRITHISQAESSKPTSKPKRVRTATKKKIPAFSDSTVISDAENELGDNNDAQDDVDIDENDIIMVSTDEEDASYGLLNGRKTKTKTRPAASTKTASRRGKGRASRT		failed to form condensates	reduced DNA binding as compared to the WT or Mre11^ΔIDR		
Mre11-ΔC49: Mre11 with C-terminal 49 residues (residues 644–692) deleted (protein, UniProt P32829 1-643, looked up, fragment) MDYPDPDTIRILITTDNHVGYNENDPITGDDSWKTFHEVMMLAKNNNVDMVVQSGDLFHVNKPSKKSLYQVLKTLRLCCMGDKPCELELLSDPSQVFHYDEFTNVNYEDPNFNISIPVFGISGNHDDASGDSLLCPMDILHATGLINHFGKVIESDKIKVVPLLFQKGSTKLALYGLAAVRDERLFRTFKDGGVTFEVPTMREGEWFNLMCVHQNHTGHTNTAFLPEQFLPDFLDMVIWGHEHECIPNLVHNPIKNFDVLQPGSSVATSLCEAEAQPKYVFILDIKYGEAPKMTPIPLETIRTFKMKSISLQDVPHLRPHDKDATSKYLIEQVEEMIRDANEETKQKLADDGEGDMVAELPKPLIRLRVDYSAPSNTQSPIDYQVENPRRFSNRFVGRVANGNNVVQFYKKRSPVTRSKKSGINGTSISDRDVEKLFSESGGELEVQTLVNDLLNKMQLSLLPEVGLNEAVKKFVDKDEKTALKEFISHEISNEVGILSTNEEFLRTDDAEEMKALIKQVKRANSVRPTPPKENDETNFAFNGNGLDSFRSSNREVRTGSPDITQSHVDNESRITHISQAESSKPTSKPKRVRTATKKKIPAFSDSTVISDAENELGDNNDAQDDVDIDENDIIMVSTDEEDA	strongly reduced colocalization as compared to wild-type Mre11	strongly reduced Mre11 foci intensity		absent	
Mer2-EQEK: Mer2 with residues E50, Q54, E57, and K61 mutated to alanine (protein, left off: His, end not stated, kept | SUMO, end not stated, kept, Mer2 with residues E50, Q54, E57, and K61 mutated to alanine) MVARGRTDEISTDVSEANSEHSLMITETSSPFRSIFSHSGKVANAGALEASDKAILAWAGALELESMELRENSDKLIKVLNENSKTLCKSLNKFNQLLEQDAATNGNVKTLIKDLASQIENQLDKVSTAMLSKGDEKKTKSDSSYRQVLVEEISRYNSKITRHVTNKQHETEKSMRCTQEMLFNVGSQLEDVHKVLLSLSKDMHSLQTRQTALEMAFREKADHAYDRPDVSLNGTTLLHDMDEAHDKQRKKSVPPPRMMVTRSMKRRRSSSPTLSTSQNHNSEDNDDASHRLKRAARTIIPWEELRPDTLESEL					strongly decreased the interaction between the two partners
